To fix the notation:
B4: Phospholipase C-γ1 (PLC-γ1), 1–1219 (enzyme, UniProt P19174 1-1219, looked up)
chain: MAGAASPCANGCGPGAPSDAEVLHLCRSLEVGTVMTLFYSKKSQRPERKTFQVKLETRQITWSRGADKIEGAIDIREIKEIRPGKTSRDFDRYQEDPAFRPDQSHCFVILYGMEFRLKTLSLQATSEDEVNMWIKGLTWLMEDTLQAPTPLQIERWLRKQFYSVDRNREDRISAKDLKNMLSQVNYRVPNMRFLRERLTDLEQRSGDITYGQFAQLYRSLMYSAQKTMDLPFLEASTLRAGERPELCRVSLPEFQQFLLDYQGELWAVDRLQVQEFMLSFLRDPLREIEEPYFFLDEFVTFLFSKENSVWNSQLDAVCPDTMNNPLSHYWISSSHNTYLTGDQFSSESSLEAYARCLRMGCRCIELDCWDGPDGMPVIYHGHTLTTKIKFSDVLHTIKEHAFVASEYPVILSIEDHCSIAQQRNMAQYFKKVLGDTLLTKPVEISADGLPSPNQLKRKILIKHKKLAEGSAYEEVPTSMMYSENDISNSIKNGILYLEDPVNHEWYPHYFVLTSSKIYYSEETSSDQGNEDEEEPKEVSSSTELHSNEKWFHGKLGAGRDGRHIAERLLTEYCIETGAPDGSFLVRESETFVGDYTLSFWRNGKVQHCRIHSRQDAGTPKFFLTDNLVFDSLYDLITHYQQVPLRCNEFEMRLSEPVPQTNAHESKEWYHASLTRAQAEHMLMRVPRDGAFLVRKRNEPNSYAISFRAEGKIKHCRVQQEGQTVMLGNSEFDSLVDLISYYEKHPLYRKMKLRYPINEEALEKIGTAEPDYGALYEGRNPGFYVEANPMPTFKCAVKALFDYKAQREDELTFIKSAIIQNVEKQEGGWWRGDYGGKKQLWFPSNYVEEMVNPVALEPEREHLDENSPLGDLLRGVLDVPACQIAIRPEGKNNRLFVFSISMASVAHWSLDVAADSQEELQDWVKKIREVAQTADARLTEGKIMERRKKIALELSELVVYCRPVPFDEEKIGTERACYRDMSSFPETKAEKYVNKAKGKKFLQYNRLQLSRIYPKGQRLDSSNYDPLPMWICGSQLVALNFQTPDKPMQMNQALFMTGRHCGYVLQPSTMRDEAFDPFDKSSLRGLEPCAISIEVLGARHLPKNGRGIVCPFVEIEVAGAEYDSTKQKTEFVVDNGLNPVWPAKPFHFQISNPEFAFLRFVVYEEDMFSDQNFLAQATFPVKGLKTGYRAVPLKNNYSEDLELASLLIKIDIFPAKENGD

Assay [1] has as its target LAT 125-178 (Homo sapiens) (UniProt O43561). Description: ITC. As to conditions: cited from earlier work.
Assay [2] concerns the target LAT 161-180 (Homo sapiens) (UniProt O43561). Briefly: ITC. Particulars: cited from earlier work.
The target in assay [3] is SLP-76 157-420 (Homo sapiens) (UniProt Q13094). Description: ITC. As to conditions: cited from earlier work.
SLP-76 157-420 (Homo sapiens), sequence (Q13094 157-420): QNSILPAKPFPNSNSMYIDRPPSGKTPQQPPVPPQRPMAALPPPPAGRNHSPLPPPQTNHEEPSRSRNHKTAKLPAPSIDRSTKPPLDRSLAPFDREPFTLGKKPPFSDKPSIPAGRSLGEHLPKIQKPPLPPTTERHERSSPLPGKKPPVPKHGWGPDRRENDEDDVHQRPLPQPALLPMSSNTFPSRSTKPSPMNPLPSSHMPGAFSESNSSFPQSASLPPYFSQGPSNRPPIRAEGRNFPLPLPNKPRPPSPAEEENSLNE
For assay [4], the target named is SLP-76 159-533 (Homo sapiens) (UniProt Q13094). Description: ITC. Particulars: cited from earlier work.
SLP-76 159-533 (Homo sapiens), sequence (Q13094 159-533): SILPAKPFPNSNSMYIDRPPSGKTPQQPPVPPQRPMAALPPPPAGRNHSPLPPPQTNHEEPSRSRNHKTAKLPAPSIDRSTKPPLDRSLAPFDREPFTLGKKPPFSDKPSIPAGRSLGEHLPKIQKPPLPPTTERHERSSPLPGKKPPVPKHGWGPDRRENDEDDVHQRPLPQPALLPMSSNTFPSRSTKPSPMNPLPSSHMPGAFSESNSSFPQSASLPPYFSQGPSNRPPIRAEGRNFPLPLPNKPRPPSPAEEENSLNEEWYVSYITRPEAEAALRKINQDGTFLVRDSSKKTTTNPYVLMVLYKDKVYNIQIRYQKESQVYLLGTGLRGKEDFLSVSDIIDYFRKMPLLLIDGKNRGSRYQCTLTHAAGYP
The target in assay [5] is LAT 122-140 (Homo sapiens) (UniProt O43561). Description: ITC. As to conditions: cited from earlier work.
The target of a further assay is SLP-76 (Homo sapiens) (UniProt Q13094). Briefly: ITC. Particulars: cited from earlier work.
SLP-76 (Homo sapiens), sequence (Q13094 whole entry): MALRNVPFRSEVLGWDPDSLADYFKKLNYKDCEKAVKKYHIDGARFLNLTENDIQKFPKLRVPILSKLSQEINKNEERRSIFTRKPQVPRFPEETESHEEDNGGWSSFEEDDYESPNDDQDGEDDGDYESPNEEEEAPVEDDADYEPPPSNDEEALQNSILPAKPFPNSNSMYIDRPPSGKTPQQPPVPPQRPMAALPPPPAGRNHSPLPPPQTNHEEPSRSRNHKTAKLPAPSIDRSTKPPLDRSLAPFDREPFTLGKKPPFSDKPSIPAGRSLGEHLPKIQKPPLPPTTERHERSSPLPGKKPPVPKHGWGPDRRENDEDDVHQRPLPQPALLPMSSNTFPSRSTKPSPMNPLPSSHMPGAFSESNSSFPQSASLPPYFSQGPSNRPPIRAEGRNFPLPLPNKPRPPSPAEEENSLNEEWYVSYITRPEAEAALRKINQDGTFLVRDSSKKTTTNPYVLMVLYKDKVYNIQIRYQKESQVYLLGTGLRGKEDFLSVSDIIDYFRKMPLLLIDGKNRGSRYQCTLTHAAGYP
The target in a further assay is T1, PLC-γ1 (1-1219) (UniProt P19174 1-1219).
T1 construct: the text calls it full length PLC-γ1; this is the only PLC-γ1 that the methods describe; also called Phospholipase C-γ1; PLC-g1; source: Sf9, purified (HaloLink Resin, TEV cleavage, SEC)
T1 sequence (looked up): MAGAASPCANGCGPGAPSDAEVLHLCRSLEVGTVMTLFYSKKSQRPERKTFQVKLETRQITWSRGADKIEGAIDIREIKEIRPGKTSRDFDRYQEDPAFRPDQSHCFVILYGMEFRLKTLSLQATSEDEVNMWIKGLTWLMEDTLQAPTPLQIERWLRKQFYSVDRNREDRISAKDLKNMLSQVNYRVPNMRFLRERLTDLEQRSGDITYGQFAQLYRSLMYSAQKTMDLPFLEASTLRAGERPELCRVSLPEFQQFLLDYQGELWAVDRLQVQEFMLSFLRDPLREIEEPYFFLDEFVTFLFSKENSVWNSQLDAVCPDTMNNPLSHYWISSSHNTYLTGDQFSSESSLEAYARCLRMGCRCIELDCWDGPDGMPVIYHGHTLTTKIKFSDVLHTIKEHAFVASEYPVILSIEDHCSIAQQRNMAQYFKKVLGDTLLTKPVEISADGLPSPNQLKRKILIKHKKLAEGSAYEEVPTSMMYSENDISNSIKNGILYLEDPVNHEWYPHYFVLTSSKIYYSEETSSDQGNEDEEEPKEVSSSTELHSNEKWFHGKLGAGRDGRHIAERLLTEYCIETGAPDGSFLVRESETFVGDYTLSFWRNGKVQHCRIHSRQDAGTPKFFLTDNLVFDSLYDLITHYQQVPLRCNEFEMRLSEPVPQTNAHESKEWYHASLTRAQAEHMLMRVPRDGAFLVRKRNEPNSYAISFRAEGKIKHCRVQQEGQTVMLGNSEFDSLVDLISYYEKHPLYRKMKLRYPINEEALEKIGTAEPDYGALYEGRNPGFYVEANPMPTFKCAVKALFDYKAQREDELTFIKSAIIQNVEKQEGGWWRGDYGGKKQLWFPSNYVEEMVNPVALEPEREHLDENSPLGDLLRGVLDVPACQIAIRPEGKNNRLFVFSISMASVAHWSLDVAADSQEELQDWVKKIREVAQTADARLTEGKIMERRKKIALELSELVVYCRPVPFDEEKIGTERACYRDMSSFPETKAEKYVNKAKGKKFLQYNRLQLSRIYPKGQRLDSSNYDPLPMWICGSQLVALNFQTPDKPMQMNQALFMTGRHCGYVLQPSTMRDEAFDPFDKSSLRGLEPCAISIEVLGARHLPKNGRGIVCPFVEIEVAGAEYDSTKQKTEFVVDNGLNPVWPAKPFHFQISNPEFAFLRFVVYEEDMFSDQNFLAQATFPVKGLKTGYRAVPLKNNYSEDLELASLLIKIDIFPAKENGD
Briefly: ITC; PEAQ-ITC, 5 °C, 20 mM Hepes pH 7.4, 100 mM NaCl, 0.1 mM DTT; 4 µM in the cell and 40 µM in the syringe, 19 injections of 2 µL; single binding site model with 1:1 stoichiometry. As to conditions: both partners purified. On the technique in general: ITC needs no label: the signal is the heat of the interaction.

In assay [6] the target is B4. Description: cell-based or functional assay.
Assay [7] has as its target B4. Description: ITC; VP-ITC or PEAQ-ITC; 20 mM Hepes pH 7.4, 100 mM NaCl, 0.1 mM DTT, 5 °C; 4 µM in the cell, 40 µM in the syringe; fit to a single binding site with 1:1 stoichiometry. As to conditions: both partners purified.
The target in assay [8] is T2, phosphorylated LAT (48–233aa, pY132, pY171) (UniProt O43561-2 48-233, phosphotyrosine at 132 and 171 (in vitro phosphorylation, validated by mass spectrometry)).
T2 sequence (looked up): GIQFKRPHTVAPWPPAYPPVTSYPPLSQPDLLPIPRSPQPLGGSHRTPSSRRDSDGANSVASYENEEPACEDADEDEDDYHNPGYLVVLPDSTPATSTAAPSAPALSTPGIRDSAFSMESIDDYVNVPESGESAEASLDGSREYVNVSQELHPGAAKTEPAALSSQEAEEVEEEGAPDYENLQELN
Briefly: cell-based or functional assay.

LAT 125-178 (Homo sapiens), sequence (O43561 125-178): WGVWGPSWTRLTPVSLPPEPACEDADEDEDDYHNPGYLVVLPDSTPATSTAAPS

As for Gads 1-322 (from UniProt O75791), the dissociation constant (Kd) in [1] is 213 nM; in assay [2] it was 164 nM; in assay [3], 19 nM; in [4], 3.6 nM.

Turning to PLC-γ1 1-1219 (from UniProt P19174), the dissociation constant (Kd) in [1] was 84 nM. With PLC-γ1 550-846 (from UniProt P19174), the Kd is 62 nM in assay [5] and 3340 nM in assay [3]. As to PLC-γ1 (from UniProt P19174), in the assay with SLP-76 (Homo sapiens), the dissociation constant (Kd) is 3.35 µM.

B1: SLP-76 PRR (aa 185-200) peptide, wild type (peptide, UniProt Q13094 185-200, looked up)
peptide: QPPVPPQRPMAALPPP
notes: SLP-76 proline-rich region, residues 185-200; The peptides are called 'a set of short peptides'; also called SLP-76^WT; SLP-76 PRR_(185-200)
B1 had a dissociation constant (Kd) in the assay with PLC-γ1 (1-1219) of 2360 nM.

B2: SLP-76^WT polypeptide (aa 103–258, Y113F, Y173F) (domain or fragment, UniProt Q13094 103-258, looked up)
chain: GGWSSFEEDDFESPNDDQDGEDDGDYESPNEEEEAPVEDDADYEPPPSNDEEALQNSILPAKPFPNSNSMFIDRPPSGKTPQQPPVPPQRPMAALPPPPAGRNHSPLPPPQTNHEEPSRSRNHKTAKLPAPSIDRSTKPPLDRSLAPFDREPFTLG
notes: source: E. coli Rosetta 2(DE3)pLysS, purified (Glutathione Resin, TEV cleavage, HisTrap, SEC); not shown: His6, N-terminal, cleaved; GST, N-terminal, cleaved
On to B2, for which the “PLC-γ1 activity on PIP2-bearing liposomes (IP3): LAT/Gads/SLP-76^WT/PLC-γ1 tetramer against PLC-γ1 with phospho-LAT alone” value in assay [6] stood at 1.7 fold. For the same molecule, in [7], binding was characterised by a dissociation constant (Kd) of 2.32 µM and the dH is -3.8 kcal/mol.

B3: SLP-76 PRR peptide (aa 185–200), wild type (peptide, UniProt Q13094 185-200, looked up)
peptide: QPPVPPQRPMAALPPP
notes: also called SLP-76 185–200 (WT); SLP-76 PRR_(185–200) peptide
In assay [7], B3 gave a dissociation constant Kd of 3.99 µM and a dH of -3.3 kcal/mol. Take B4: the “PIP2 hydrolysis (IP3) by PLC-γ1 on liposomes containing phospho-LAT alone, compared with liposomes incubated with PLC-γ1 alone” value in assay [8] came out at 2.1 fold.

For orientation: Kd means a measure of binding affinity in units of concentration.
